This is an account of results in patent publication US20180155451A1 (published 2018).

Where a chain is given by its changes, count along the chain named. Numbers in names are those of the source.

T1: FcγRIIb extracellular domain with C-terminal His tag (human, UniProt P31994 43-217)
T1 construct: extracellular domain; also called FcgRIIb; 2b; not shown: His tag at the C terminus
T1 sequence (looked up): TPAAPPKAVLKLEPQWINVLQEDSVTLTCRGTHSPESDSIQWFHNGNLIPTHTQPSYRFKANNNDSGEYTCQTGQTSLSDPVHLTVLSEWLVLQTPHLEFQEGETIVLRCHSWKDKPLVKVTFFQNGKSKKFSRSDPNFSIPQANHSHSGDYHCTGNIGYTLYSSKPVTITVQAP

T2: FcgRIIa R (human, UniProt P12318 34-217)
T2 construct: extracellular domain; also called FcγRIIa R; FcγRIIa type R; not shown: His tag attached to the C terminus
T2 sequence (looked up): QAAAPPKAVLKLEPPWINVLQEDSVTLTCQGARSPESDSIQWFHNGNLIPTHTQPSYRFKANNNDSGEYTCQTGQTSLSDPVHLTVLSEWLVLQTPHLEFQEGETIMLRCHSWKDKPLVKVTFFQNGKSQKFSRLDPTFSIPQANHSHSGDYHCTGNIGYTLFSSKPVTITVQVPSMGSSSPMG

T3: FcgRIIa H (human, UniProt P12318 34-217)
T3 construct: extracellular domain; also called FcγRIIa H; FcγRIIa type H; not shown: His tag attached to the C terminus
T3 sequence (looked up): T2 sequence (looked up) with R134H

T4: FcgRIIb (human, UniProt P31994 43-217)
T4 construct: extracellular domain; also called FcγRIIb; not shown: His tag attached to the C terminus
T4 sequence (looked up): T1 sequence (looked up)

B1: GpH7-A5/GpH7-B3 variant S239_07I/GpL16-k0 (antibody, human IgG1, kappa)
heavy 1: not shown
heavy 2: not shown
light: DIVMTQSPLSLPVTPGEPASISCQASESLVHSNRNTYLHWYLQKPGQSPQLLIYKVSNRFSGVPDRFSGSGSGTDFTLKISRVEAEDVGVYYCSQNTHVPPTFGQGTKVEIERTVAAPSVFIFPPSDEQLKSGTASVVCLLNNFYPREAKVQWKVDNALQSGNSQESVTEQDSKDSTYSLSSTLTLSKADYEKHKVYACEVTHQGLSSPVTKSFNRGEC
notes: Heterodimerized anti-glypican-3 IgG1; the substitution stands in the GpH7-B3 chain only; also called He Ab
B2: GpH7-A5/GpH7-B3 variant S239_12R/GpL16-k0 (antibody, human IgG1, kappa)
heavy 1: not shown
heavy 2: not shown
light: B1 light
notes: as for B1
B3: GpH7-A5/GpH7-B3 variant S239_08L/GpL16-k0 (antibody, human IgG1, kappa)
heavy 1: not shown
heavy 2: not shown
light: B1 light
notes: as for B1
B4: GpH7-A5/GpH7-B3 variant S239_15Y/GpL16-k0 (antibody, human IgG1, kappa)
heavy 1: not shown
heavy 2: not shown
light: B1 light
notes: as for B1
B5: GpH7-A5/GpH7-B3 variant S239_11K/GpL16-k0 (antibody, human IgG1, kappa)
heavy 1: not shown
heavy 2: not shown
light: B1 light
notes: as for B1
B6: GpH7-A5/GpH7-B3 variant S239_19Q/GpL16-k0 (antibody, human IgG1, kappa)
heavy 1: not shown
heavy 2: not shown
light: B1 light
notes: as for B1
B7: GpH7-A5/GpH7-B3 variant S239_16H/GpL16-k0 (antibody, human IgG1, kappa)
heavy 1: not shown
heavy 2: not shown
light: B1 light
notes: as for B1
B8: H240-Kn061 (A231E)/H240-Hl071/L73-k0 (antibody, human IgG1, kappa)
heavy 1: QDQLVQSGAEVKKPGASVKVSCKASGFNIKDTYIQWVRQAPGQGLEWMGRIDPLRKQTKYREKFEGRVTITADTSTNTAYMELSSLRSEDTAVYYCVRSGREFDYWGQGTLVTVSSASTKGPSVFPLAPSSKSTSGGTAALGCLVKDYFPEPVTVSWNSGALTSGVHTFPAVLQSSGLYSLSSVVTVPSSSLGTQTYICNVNHKPSNTKVDKKVEPKSCDKTHTCPPCPEPEYYWGPSVFLFPPKPKDTLMISRTPEVTCVVVDVSDEDPEVKFNWYVDGVEVHNAKTKPREEQYNATYRVVSVLTVLHQDWLNGKEYKCKVSNKALPAPIEKTISKAKGQPREPQVCTLPPSRDELTKNQVSLWCLVKGFYPSDIAVEWESNGQPENNYKTTPPVLDSDGSFFLYSKLTVDKSRWQQGNVFSCSVMHEALHNHYTQKSLSLSP
heavy 2: QDQLVQSGAEVKKPGASVKVSCKASGFNIKDTYIQWVRQAPGQGLEWMGRIDPLRKQTKYREKFEGRVTITADTSTNTAYMELSSLRSEDTAVYYCVRSGREFDYWGQGTLVTVSSASTKGPSVFPLAPSSKSTSGGTAALGCLVKDYFPEPVTVSWNSGALTSGVHTFPAVLQSSGLYSLSSVVTVPSSSLGTQTYICNVNHKPSNTKVDKKVEPKSCDKTHTCPPCPAPELLGGPSVFLFPPKPKDTLMISRTPEVTCVVVDVSHEDPEVKFNWYVDGVEVHNAKTKPREEQYNSTYRVVSVLTVLHQDWLNGKEYKCKVSNDALPMPIEETISKAKGQPREPQVYTLPPSRCELTKNQVSLSCAVKGFYPSDIAVEWESNGQPENNYKTTPPVLDSDGSFFLVSKLTVDKSRWQQGNVFSCSVMHEALHNHYTQKSLSLSP
light: DIQMTQSPSSLSASVGDRVTITCRASQDIHKYIAWYQQKPGQAPRLLIQYTSTLQPGVPSRFSGSGSGTDYTFTISSLQPEDIATYYCLQYEQLRTFGGGTKVEIKRTVAAPSVFIFPPSDEQLKSGTASVVCLLNNFYPREAKVQWKVDNALQSGNSQESVTEQDSKDSTYSLSSTLTLSKADYEKHKVYACEVTHQGLSSPVTKSFNRGEC
B9: H240-Kn061 (S239M)/H240-Hl071/L73-k0 (antibody, human IgG1, kappa)
heavy 1: B8 heavy 1 with E230A, S238M
heavy 2: B8 heavy 2
light: B8 light
B10: H240-Kn061 (A231V)/H240-Hl071/L73-k0 (antibody, human IgG1, kappa)
heavy 1: B8 heavy 1 with E230V
heavy 2: B8 heavy 2
light: B8 light
B11: H240-Kn061 (S239I)/H240-Hl071/L73-k0 (antibody, human IgG1, kappa)
heavy 1: B8 heavy 1 with E230A, S238I
heavy 2: B8 heavy 2
light: B8 light
B12: H240-Kn061 (S239L)/H240-Hl071/L73-k0 (antibody, human IgG1, kappa)
heavy 1: B8 heavy 1 with E230A, S238L
heavy 2: B8 heavy 2
light: B8 light
B13: H240-Kn061 (A231Q)/H240-Hl071/L73-k0 (antibody, human IgG1, kappa)
heavy 1: B8 heavy 1 with E230Q
heavy 2: B8 heavy 2
light: B8 light

T7 sequence (P08637 17-208 F176V limits assumed): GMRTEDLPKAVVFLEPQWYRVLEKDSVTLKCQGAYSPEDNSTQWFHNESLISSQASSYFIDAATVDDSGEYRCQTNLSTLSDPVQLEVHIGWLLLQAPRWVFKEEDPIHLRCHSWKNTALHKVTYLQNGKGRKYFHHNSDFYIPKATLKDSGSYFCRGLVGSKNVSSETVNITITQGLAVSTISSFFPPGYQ

One assay deals with T5, FcγRIIIa extracellular domain with C-terminal His tag (human, UniProt P08637 17-208).
T5 construct: extracellular domain; also called FcgRIIIa; 3a; not shown: His tag at the C terminus
T5 sequence (P08637 17-208): as the sequence (P08637 17-208 F176V limits assumed) above, with V160F counted along it
Briefly: SPR; He/Con_3a divided by He/Con_2b (binding to FcγRIIb is the reference). The method, then:
Analysis of interaction between objective antibody and the FcγR was carried out using Biacore T100 (GE Healthcare). HBS-EP+ (GE Healthcare) was used as the running buffer, and the measurement temperature was set to 25° C. Chips produced by immobilizing the antigen peptide by the amine coupling method to a Series S Sencor Chip CM5 (GE Healthcare), or alternatively, chips produced by allowing preliminarily biotinylated antigen peptides to interact with and immobilize onto a Series S Sensor Chip SA (certified) (GE Healthcare) were used. Antibodies of interest were captured onto an antigen peptide-immobilized chip, and allowed to interact to each FcγR diluted with running buffer. To regenerate and repeatedly use the chip, the antibodies captured on the chip were washed off by reacting 10 mM glycine-HCl, pH 1.5.
The FcγR-binding activity of each antibody was assessed primarily using as an indicator the FcγR-binding activity and dissociation constant for FcγR.
Background: Surface plasmon resonance follows binding to a sensor surface in real time, without labels.
Turning to B1, the “He_3a/2b (IIIa/IIb)” value amounted to 0.74 ratio.
On to B2, for which the “He_3a/2b (IIIa/IIb)” value worked out at 0.44 ratio.
Regarding B3, the “He_3a/2b (IIIa/IIb)” value stood at 0.68 ratio.
For the molecule B4, the “He_3a/2b (IIIa/IIb)” value was found to be 0.73 ratio.
As for B5, the “He_3a/2b (IIIa/IIb)” value was 0.48 ratio.
As to B6, the “He_3a/2b (IIIa/IIb)” value came to 0.66 ratio.
As to B7, the “He_3a/2b (IIIa/IIb)” value is 0.59 ratio.

The next assay concerns the target T5, FcγRIIIa extracellular domain with …. Briefly: SPR (Biacore), antibody captured on antigen peptide chip, FcγR as analyte; relative binding amount.
For the molecule B1, the He/Con_3a was 79.3 % of GpH7-A5/GpH7-B3/GpL16-k0 (=100).
On to B2, for which the He/Con_3a was 17 % of GpH7-A5/GpH7-B3/GpL16-k0 (=100).
For the molecule B3, the He/Con_3a was 95.3 % of GpH7-A5/GpH7-B3/GpL16-k0 (=100).
In the case of B4, the He/Con_3a was 25.6 % of GpH7-A5/GpH7-B3/GpL16-k0 (=100).
For the molecule B5, the He/Con_3a is 11.9 % of GpH7-A5/GpH7-B3/GpL16-k0 (=100).
With B6, the He/Con_3a is 56.9 % of GpH7-A5/GpH7-B3/GpL16-k0 (=100).
For B7, the He/Con_3a was 29.2 % of GpH7-A5/GpH7-B3/GpL16-k0 (=100).

Another assay concerns the target T1, FcγRIIb extracellular domain with …. Described as above.
With B1, the He/Con_2b is 107 % of GpH7-A5/GpH7-B3/GpL16-k0 (=100).
Regarding B2, the He/Con_2b is 39.1 % of GpH7-A5/GpH7-B3/GpL16-k0 (=100).
For the molecule B3, the He/Con_2b was 140 % of GpH7-A5/GpH7-B3/GpL16-k0 (=100).
In the case of B4, the He/Con_2b was 34.9 % of GpH7-A5/GpH7-B3/GpL16-k0 (=100).
On to B5, for which the He/Con_2b is 24.7 % of GpH7-A5/GpH7-B3/GpL16-k0 (=100).
Take B6: the He/Con_2b is 86.1 % of GpH7-A5/GpH7-B3/GpL16-k0 (=100).
Still for that read-out and setting: to B7 belongs 49.4 % of GpH7-A5/GpH7-B3/GpL16-k0 (=100).

The target of the next assay is T2, FcgRIIa R. Briefly: SPR (Biacore); KD of H240-Kn061/H240-Hl071/L73-k0 divided by KD of the variant. The method, then:
(§1) The antibodies were assessed for the binding to each FcgR. […] The resultant value was defined as relative KD, and used as an assessment indicator.
(§2) Analysis of interaction between obj ective antibody and the FcγR was carried out using Biacore T100 (GE Healthcare), Biacore T200, Biacore A100, and Biacore 4000. HBS-EP+ (GE Healthcare) was used as the running buffer, and the measurement temperature was set to 25° C. Chips produced by immobilizing the antigen peptide by the amine coupling method to a Series S sensor Chip CM5 (GE Healthcare), chips produced by allowing preliminarily biotinylated antigen peptides to interact with and immobilize onto a Series S Sensor Chip SA (certified) (GE Healthcare), chips produced by immobilizing Protein L (ACTIGEN, BioVision) to Series S Sencor Chip CM5 (GE Healthcare), or chips produced by immobilizing Protein A/G (Thermo Scientific) to Series S Sencor Chip CM5 (GE Healthcare) were used. Antibodies of interest were captured onto these chips, and allowed to interact to each FcγR diluted with running buffer.
Consider B8, for which the “Relative KD” value came out at 1.7.
In the case of B9, the “Relative KD” value worked out at 3.2.
For B10, the “Relative KD” value came to 1.6.
B11: the “Relative KD” value turned out to be 4.4.
B12: the “Relative KD” value came to 4.8.
For the molecule B13, the “Relative KD” value worked out at 1.5.

The target in the next assay is T6, FcgRIIIa F (human, UniProt P08637 17-208).
T6 construct: extracellular domain; also called FcγRIIIa F; 3aF; not shown: His tag attached to the C terminus
T6 sequence (P08637 17-208): as the sequence (P08637 17-208 F176V limits assumed) above, with V160F counted along it
Described as above. The protocol: as §1, §2
Regarding B8, the “Relative KD” value came out at 1.8.
Same read-out and setting: the same measure for B9: 2.2; for B10: 1.3.
On the same count and under the same terms, to B11 belongs 3; to B12, 3.4; to B13, 1.5.

The target of a further assay is T3, FcgRIIa H. The description is as above. The method, then: as §1, §2
As for B8, the “Relative KD” value came to 1.6.
Same read-out and setting: the same measure for B9: 2; for B10: 1.6.
As for B11, the “Relative KD” value stood at 2.1.
Consider B12, for which the “Relative KD” value was found to be 2.4.
B13: the “Relative KD” value worked out at 1.5.

Another assay addresses T4, FcgRIIb. Described as above. The protocol:
as §1, §2
Consider B8, for which the “Relative KD” value worked out at 1.4.
B9: the “Relative KD” value was 2.2.
Regarding B10, the “Relative KD” value was determined as 1.6.
Consider B11, for which the “Relative KD” value amounted to 3.1.
With B12, the “Relative KD” value stood at 3.4.
Take B13: the “Relative KD” value worked out at 1.4.

The next assay addresses T7, FcgRIIIa V (human, UniProt P08637 17-208).
T7 construct: extracellular domain; also called FcγRIIIa V; not shown: His tag attached to the C terminus
The description is as above. The method, then:
as §1, §2
In the case of B8, the “Relative KD” value is 2.
With B9, the “Relative KD” value was 2.8.
Take B10: the “Relative KD” value was found to be 1.5.
As to B11, the “Relative KD” value was 3.4.
For the molecule B12, the “Relative KD” value was 3.7.
The same measure, in the same setting: the same measure for B13: 1.7.
